From the supplement of paper PMC7877785
± gives the uncertainty stated by the source.

Experiment: self-splicing fitness, log relative to wild type (ln ratio); higher = more splicing; Tetrahymena group I intron in knt gene, E. coli kanamycin selection, DiMSum; sequences stand for … in CUCUCU…GGAGGGAAAAGUUAUCAGGCAUGCACCUGGUAGCUAGUCUUUAAACCAAUAGAUUGCAUCGGUUUAAAAGGCAAGACCGUCAAAUUGCGGGAAAGGGGUCAACAGCCGUUCAGUACCAAGUCUCAGGGGAAACUUUGAGAUGGCCUUGCAAAGGGUAUGGUAAUAAGCUGACGGACAUGGUCCUAACCACGCAGCCAAGUCCUAAGUCAACAGAUCUUCUGUUGAUAUGGAUGCAGUUCACAGACUAAAUGUCGGUCGGGGAAGAUGUAUUCUUCUCAUAAGAUAUAGUCGGACCUCUCCUUAAUGGGAGCUAGCGGAUGAAGUGAUGCAACACUGGAGCCGCUGGGAACUAAUUUGUAUGCGAAAGUAUAUUGAUUAGUUUUGGAGUACUCGUGGUCG
How it was run: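 The eight P1ex-region nucleotides of an intron in the knt kanamycin-resistance gene on pET-22b(+) were all randomised and the library put into E. coli BL21(DE3). Six replicate transformations were grown overnight at 37°C or 30°C on LB agar with or without 25 μg/mL kanamycin, together with 100 μg/mL carbenicillin, 50 μM IPTG and 0.2% rhamnose. Colonies were pooled and amplicon-sequenced on an Illumina HiSeq 2500. Fitness from DiMSum is the error-weighted combination of wild-type-normalised replicate fold changes, kanamycin over none.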

Sequence | self-splicing fitness (ln) (30 °C) | self-splicing fitness (ln) (37 °C)
UGUGAGCAAUAUUACGGAAA | -2.62 ± 0.38 | -2.61 ± 0.31
CGAGAGCAAUAUUACGUUAC | -4.23 ± 0.28 | -2.29 ± 0.24
UUCAAGCAAUAUUACGAUUA | -0.129 ± 0.08 | 0.183 ± 0.081
AACUAGCAAUAUUACGUAUA | -2.05 ± 0.11 | -0.938 ± 0.12
CAGCAGCAAUAUUACGUAAG | -0.365 ± 0.046 | 0.0316 ± 0.067
CGAUAGCAAUAUUACGGCUG | -0.568 ± 0.1 | 0.209 ± 0.15
CGAAAGCAAUAUUACGAUUG | -0.934 ± 0.074 | -0.262 ± 0.1
AAGCAGCAAUAUUACGGGUU | -2.1 ± 0.094 | -1.61 ± 0.12
UCUCAGCAAUAUUACGUAAU | -3.43 ± 0.18 | -2.28 ± 0.18
AUUGAGCAAUAUUACGGACC | -3.26 ± 0.48 | 
GUCCAGCAAUAUUACGAUGA | -1.49 ± 0.084 | -0.996 ± 0.092
CUUCAGCAAUAUUACGCAAG | -4.31 ± 0.26 | -1.81 ± 0.2
GAGGAGCAAUAUUACGUCAC | -2.85 ± 0.25 | 
GUUGAGCAAUAUUACGCGUC | -1.59 ± 0.27 | -0.951 ± 0.34
UACUAGCAAUAUUACGUGGA | -3.03 ± 0.22 | -2.47 ± 0.21
CGGAAGCAAUAUUACGCUUU | -2.02 ± 0.18 | -3.26 ± 0.33
UCUAAGCAAUAUUACGCAGG | -2.92 ± 0.23 | -2.36 ± 0.41
AACUAGCAAUAUUACGUCUA | -0.702 ± 0.097 | -0.347 ± 0.1
UAAAAGCAAUAUUACGUCAA | -1.57 ± 0.11 | -1.4 ± 0.098
GACUAGCAAUAUUACGUUAG | -4.25 ± 0.23 | -3.17 ± 0.23

Sequence | self-splicing fitness (ln) (30 °C) | self-splicing fitness (ln) (37 °C)
CCUAAGCAAUAUUACGGACG | -1.15 ± 0.059 | -0.303 ± 0.08
UUGAAGCAAUAUUACGGCGA | 0.203 ± 0.088 | 0.256 ± 0.12
GAGAAGCAAUAUUACGGCGU | -0.403 ± 0.12 | 0.0558 ± 0.16
ACCCAGCAAUAUUACGUAAG | -1.13 ± 0.049 | -0.47 ± 0.069
UCGGAGCAAUAUUACGUGGC |  | -1.95 ± 0.38
ACAGAGCAAUAUUACGCUUC | -3.96 ± 0.24 | -2.16 ± 0.3
AGUAAGCAAUAUUACGUGGU | -4.77 ± 0.29 | -2.59 ± 0.17
AUGUAGCAAUAUUACGCGGU | -2.3 ± 0.15 | -1.58 ± 0.2
GUCUAGCAAUAUUACGAAUG | -2.56 ± 0.21 | -1.43 ± 0.19
CCUCAGCAAUAUUACGCGAA | -3.88 ± 0.34 | -3.79 ± 0.34
CUUCAGCAAUAUUACGGAUU | -2.13 ± 0.18 | -1.75 ± 0.16
UUUUAGCAAUAUUACGUCUA | -0.819 ± 0.23 | -0.292 ± 0.2
UGUUAGCAAUAUUACGUAUU |  | -2.12 ± 0.3
CCUGAGCAAUAUUACGUUGG | -4.56 ± 0.29 | -2.16 ± 0.16
CCCAAGCAAUAUUACGCUUG | -3.39 ± 0.18 | -1.92 ± 0.17
AAUAAGCAAUAUUACGUCUU | 0.0603 ± 0.06 | -0.0919 ± 0.075
GCAAAGCAAUAUUACGUUCU | -1.44 ± 0.094 | -0.638 ± 0.097
GGGGAGCAAUAUUACGCGUC | -3.26 ± 0.43 | -1.47 ± 0.23
ACCGAGCAAUAUUACGCGUC | -3.17 ± 0.15 | -2.18 ± 0.22
